Read-outs that look alike come from different tables or passages of the source. Where no end group is shown, it is not given here.
Assays:
Test in all cases: fluorescence polarisation
[1] = molecular target: T1, Full-length mammalian calmodulin, residues 1–148 (rat) (rat, UniProt P0DP29 1-149)
[2] = molecular target: T1, Full-length mammalian calmodulin, …; remark: listed apart in the source
[3] = molecular target: N-domain fragment of calmodulin, residues 1–80 (rat, UniProt P0DP29 2-81)
[4] = molecular target: C-domain fragment of calmodulin, residues 76–148 (rat, UniProt P0DP29 77-149)

| Kd [1] [nM] | Kd [2] [nM] | Kd [3] [nM] | Kd [4] [nM] | Binder |
| --- | --- | --- | --- | --- |
| ≤ 2 |  |  |  | {5,6‑carboxyfluorescein}-FNATLFALVRTALRIKTEGNLE [Fl-A_(1588): A_(1588) (residues 1588–1609 of Cav1.2 CTT) fluoresceinated at the N-terminus] |
| ≤ 2 | 4100 ± 370 | ≤ 70 | ≤ 70 | {5,6‑carboxyfluorescein}-ELRAIIKKIWKRTSMKLLDQVV [Fl-C_(1614): C_(1614) (residues 1614–1635 of Cav1.2 CTT) fluoresceinated at the N-terminus] |
| ≤ 2 | 2500 ± 180 | 1100 ± 970 | ≤ 10 | {5,6‑carboxyfluorescein}-ATFLIQEYFRKFKKRKEQGLVGKPSQ [Fl-IQ′_(1650): IQ′_(1650) (residues 1650–1675 of Cav1.2 CTT) fluoresceinated at the N-terminus] |

Reference: paper PMC3340011 (Biophysical Chemistry, 2011)
